Substrate in the data set: NC(=O)c1ccc[n+]([C@@H]2O[C@H](COP(=O)([O-])OP(=O)(O)OC[C@H]3O[C@@H](n4cnc5c(N)ncnc54)[C@H](O)[C@@H]3O)[C@@H](O)[C@H]2O)c1
Description: purified protein. Type of data set: biochemical, Homo sapiens.

B1: Sirt1 (Homo sapiens) (protein)
chain: ADEAALALQPGGSPSAAGADREAASSPAGEPLRKRPRRDGPGLERSPGEPGGAAPEREVPAAARGCPGAAAAALWREAEAEAAAAGGEQEAQATAAAGEGDNGPGLQGPSREPPLADNLYDEDDDDEGEEEEEAAAAAIGYRDNLLFGDEIITNGFHSCESDEEDRASHASSSDWTPRPRIGPYTFVQQHLMIGTDPRTILKDLLPETIPPPELDDMTLWQIVINILSEPPKRKKRKDINTIEDAVKLLQECKKIIVLTGAGVSVSCGIPDFRSRDGIYARLAVDFPDLPDPQAMFDIEYFRKDPRPFFKFAKEIYPGQFQPSLCHKFIALSDKEGKLLRNYTQNIDTLEQVAGIQRIIQCHGSFATASCLICKYKVDCEAVRGDIFNQVVPRCPRCPADEPLAIMKPEIVFFGENLPEQFHRAMKYDKDEVDLLIVIGSSLKVRPVALIPSSIPHEVPQILINREPLPHLHFDVELLGDCDVIINELCHRLGGEYAKLCCNPVKLSEITEKPPRTQKELAYLSELPPTPLHVSEDSSSPERTSPPDSSVIVTLLDQAAKSNDDLDVSESKGCMEEKPQEVQTSRNVESIAEQMENPDLKNVGSSTGEKNERTSVAGTVRKCWPNRVAKEQISRRLDGNQYLFLPPNRYIFHGAEVYSDSEDDVLSSSSCGSNSDSGTCQSPSLEEPMEDESEIEEFYNGLEDEPDVPERAGGAGFGTDGDDQEAINEAISVKQEVTDMNYPSNKS
By Km is commonly meant the substrate concentration at which the rate is half of its maximum. As for B1, the Km is 171 ± 23 µM.

Values taken from paper PMC2752052.
